Assay results: US20240132546A1 (Molecular Partners, published 2024)
Where a chain is given by its changes, count along the chain named.

B1: DARPin08-GSGSC-DTPA (designed binder)
chain: DLGTQLLRAAESGQLDEVRELLKAGADVNAQDEYGLTPLYLATAHGHLEIVTVLLEAGADVNAQDAIGFTPLHLAAFIGHLEIATVLLEAGADVNAQDKFGKTPADIAAGAGNEDIAEVLQKAAGSGSC
modifications: maleimide-DTPA coupled to the C-terminal Cys of the GSGSC tag
notes: Charge variant of DARPin06; His-TEV tag cleaved off; possible N-terminal GS not included; also called construct 8
B2: DARPin06-GSGSC-DTPA (designed binder)
chain: DLGKKLLEAARAGQDDEVRELLKAGADVNAKDEYGLTPLYLATAHGHLEIVEVLLKAGADVNAVDAIGFTPLHLAAFIGHLEIAEVLLKAGADVNAQDKFGKTPADIAAGAGNEDIAEVLQKAAGSGSC
modifications: maleimide-DTPA coupled to the C-terminal Cys of the GSGSC tag
notes: Parent; also called construct 6; DTPA coupled parental DARPin06
B3: DARPin13-GSGSC-DTPA (designed binder)
chain: B1 chain with R8Q, R19H, E20D, K23Q
modifications: maleimide-DTPA coupled to the C-terminal Cys of the GSGSC tag
notes: Charge variant derived from DARPin06; His-TEV tag cleaved off; possible N-terminal GS not included; also called construct 13
B4: DARPin14-GSGSC-DTPA (designed binder)
chain: B1 chain with R8E, K23Q
modifications: maleimide-DTPA coupled to the C-terminal Cys of the GSGSC tag
notes: Charge variant derived from DARPin06; His-TEV tag cleaved off; possible N-terminal GS not included; also called construct 14
B5: DARPin15-GSGSC-DTPA (designed binder)
chain: B1 chain with K99N, K102T, K122Q
modifications: maleimide-DTPA coupled to the C-terminal Cys of the GSGSC tag
notes: Charge variant derived from DARPin06; His-TEV tag cleaved off; possible N-terminal GS not included; also called construct 15
B6: DARPin16-GSGSC-DTPA (designed binder)
chain: B1 chain with R8E, K102T
modifications: maleimide-DTPA coupled to the C-terminal Cys of the GSGSC tag
notes: Charge variant derived from DARPin06; His-TEV tag cleaved off; possible N-terminal GS not included; also called construct 16
B7: DARPin12-GSGSC-DTPA (designed binder)
chain: DLGIQLLFAAAKGQLDTVRTLLQAGADVNAKDFQGVTPLHIAAQSGHLQIVEVLLQAGADVNAKDVTGDTPLHLAAQHGHLQIVTVLLQAGADVNAQDERGWTPADLAADWGNQQIAEVLQQAAGSGSC
modifications: maleimide-DTPA coupled to the C-terminal Cys of the GSGSC tag
notes: Charge variant of DARPin11; His-TEV tag cleaved off; possible N-terminal GS not included; also called construct 12
B8: DARPin10-GSGSC-DTPA (designed binder)
chain: B1 chain with R8Q, E17T, E49Q, T52R, E56Q, E89K, G110T, E114Q, D115Q, E118S
modifications: maleimide-DTPA coupled to the C-terminal Cys of the GSGSC tag
notes: Charge variant of DARPin06; His-TEV tag cleaved off; possible N-terminal GS not included; also called construct 10
B9: DARPin07-GSGSC-DTPA (designed binder)
chain: DLGTQLLRAAESGQLDTVRTLLKAGADVNAKDEYGLTPLYLATAHGHLQIVRVLLQAGADVNAKDAIGFTPLHLAAFIGHLKIAEVLLKAGADVNAQDKFGKTPAQIAATAGNQQIASVLQKAAGSGSC
modifications: maleimide-DTPA coupled to the C-terminal Cys of the GSGSC tag
notes: Charge variant of DARPin06 (negative control for kidney uptake, higher pI); His-TEV tag cleaved off; possible N-terminal GS not included; also called construct 7
B10: DARPin09-GSGSC-DTPA (designed binder)
chain: B9 chain with R8Q, K31Q, R52Q, Q56S, K64Q, K82Q, E85Q, K89S, K102T, K122Q
modifications: maleimide-DTPA coupled to the C-terminal Cys of the GSGSC tag
notes: Charge variant of DARPin06; His-TEV tag cleaved off; possible N-terminal GS not included; also called construct 9
B11: DARPin11-GSGSC-DTPA (designed binder)
chain: DLGIKLLFAAAKGQDDEVRELLKAGADVNAKDFQGVTPLHIAAQSGHLEIVEVLLKAGADVNAKDVTGDTPLHLAAQHGHLEIVEVLLKAGADVNAQDERGWTPADLAADWGHEDIAEVLQKAAGSGSC
modifications: maleimide-DTPA coupled to the C-terminal Cys of the GSGSC tag
notes: Parent; His-TEV tag cleaved off; possible N-terminal GS not included; also called construct 11; DTPA coupled parental DARPin11
B12: parental DARPin06 (designed binder)
chain: DLGKKLLEAARAGQDDEVRELLKAGADVNAKDEYGLTPLYLATAHGHLEIVEVLLKAGADVNAVDAIGFTPLHLAAFIGHLEIAEVLLKAGADVNAQDKFGKTPADIAAGAGNEDIAEVLQKAA

Molecular target: T1, biotinylated full-length HER2 (human, UniProt P04626 23-652, limits assumed, biotinylated (site not stated))
T1 construct: Immobilised on the SPR chip; also called bio-HER2; Human Epidermal Growth Factor Receptor 2
Experiment: SPR multi-trace, biotinylated HER2 on chip, analyte 0.617-50 nM, global 1:1 Langmuir fit
Source text: (§1) FIGS. 9A-9F: Multi-trace SPR profiles of DTPA-coupled DARPins (also referred to as constructs, see Tables 7 and 16) against biotinylated full-length HER2. FIGS. 9A, 9B, 9C, 9D, 9E, and 9F show the profiles of construct 6 (DARPin06-GSGSC-DTPA), construct 8 (DARPin08-GSGSC-DTPA), construct 13 (DARPin13-GSGSC-DTPA), construct 14 (DARPin14-GSGSC-DTPA), construct 15 (DARPin15-GSGSC-DTPA) and construct 16 (DARPin16-GSGSC-DTPA), respectively. The GSGSC tag (SEQ ID NO: 14) was fused to the C-terminal end of the DARPins. Three-fold dilutions of the analytes (50, 16.667, 5.556, 1.852 and 0.617 nM) were injected for 300s, dissociation was recorded for 1500s (25 ul/min). Each injection was followed by a regeneration step with glycine pH 2.0 for 60s. Dissociation constants (KD) were calculated from the globally fitted on- and off-rates using standard 1:1-Langmuir model (see Table 17).
(§2) Binding kinetics of the constructs to the target protein HER2 was measured in a multi-trace SPR assay. A new Xantec NAHLC200M chip was conditioned according to the manufacturer's protocol. The chip was coated with biotinylated target (bio-HER2, 10 ug/mL) for 900s to reach a signal intensity of approximately 1200-1300 RU. Three-fold dilutions of the analytes (50, 16.667, 5.556, 1.852 and 0.617 nM) were injected for 300s, dissociation was recorded for 1500s (25 ul/min). Each injection was followed by a regeneration step with glycine pH 2.0 for 60s. The signals (i.e. resonance unit (RU) values) of empty surface and a reference injection (i.e. injection of running buffer only) were subtracted from the RU traces obtained injecting the constructs (double-referencing). Dissociation constants (KD) were calculated from the globally fitted on- and off-rates using standard 1:1-Langmuir model.

Binder	Kd [pM]	koff [s⁻¹]	kon [M⁻¹ s⁻¹]
B1	170	8.82e-05	521000
B2	216	0.000141	653000
B3	357	0.000138	386000
B4	230	0.000121	524000
B5	637	0.000214	336000
B6	615	0.00026	422000

Molecular target: T1, biotinylated full-length HER2
Experiment: SPR, single trace, 500 nM analyte over biotinylated HER2 on the chip, double-referenced, 1:1 Langmuir fit [continued]
Source text: (§3) FIG. 4: Single-trace SPR profiles of DTPA-coupled DARPins (also referred to as constructs, see Table 7) against biotinylated full-length HER2. As reference, plots 1 and 2 show the profiles of the HER2-binding parental DARPin06 (SEQ ID NO: 6) and DARPin11 (SEQ ID NO: 11), respectively. Plots 3, 4, 5, 6 and 7 show the profiles of construct 6 (DARPin06-GSGSC-DTPA), construct 7 (DARPin07-GSGSC-DTPA), construct 8 (DARPin08-GSGSC-DTPA), construct 9 (DARPin09-GSGSC-DTPA) and construct 10 (DARPin10-GSGSC-DTPA), respectively. Plots 8 and 9 show construct 11 (DARPin11-GSGSC-DTPA) and construct 12 (DARPin12-GSGSC-DTPA), respectively. The GSGSC tag (SEQ ID NO: 14) was fused to the C-terminal end of the DARPins. All analytes (500 nM) were injected in succession for 120s, dissociation was recorded for 180s (25 ul/min of PBS-Tween20 (0.005%)). Each injection was followed by a regeneration step with glycine pH2.0 for 60s. The data was double referenced (control spot and buffer injection) and fitted to a 1:1 Langmuir model.
A surface plasmon resonance (SPR) assay was used to determine if the charge-engineered DARPin variants derived from the parental DARPin06 (SEQ ID NO: 6) and DARPin11 (SEQ ID NO: 11) could still bind to HER2. All SPR data were generated using a Bruker Sierra SPR-32 instrument with PBS-T (0.005% Tween 20) as running buffer. A new Bruker BTC Chip was conditioned according to the manufacturer's protocol. The chip was coated with biotinylated target (bio-HER2) to reach a signal intensity of approximatively 600 RU. All analytes (500 nM) were injected in succession for 120s, dissociation was recorded for 180s (25 ul/min). Each injection was followed by a regeneration step with glycine pH 2.0 for 60s. The data was double referenced (control spot and buffer injection) and fitted to a 1:1 Langmuir model. […] A DTPA coupled DARPin is also referred to as a “construct”. SPR curves are shown in FIG. 4 where plots 1 and 2 show the profiles of the HER2-binding parental DARPin06 and DARPin11 (SEQ ID NOs: 6 and 11, respectively).

Binder	Kd [pM]
B7	982
B1	583
B8	622
B9	456
B10	1440
B11	226

Molecular target: T1, biotinylated full-length HER2
Experiment: SPR multi-trace, biotinylated HER2 on chip, analyte 0.617-50 nM, global 1:1 Langmuir fit
Remark: another data set of the same source
Source text: as §1, §2

Binder	Kd [pM]
B1	< 1000
B3	< 1000
B4	< 1000
B5	< 1000
B6	< 1000

Molecular target: T1, biotinylated full-length HER2
Experiment: SPR, single trace, 500 nM analyte over biotinylated HER2 on the chip, double-referenced, 1:1 Langmuir fit
Source text: as §3
A surface plasmon resonance (SPR) assay was used to determine if the charge-engineered DARPin variants derived from the parental DARPin06 (SEQ ID NO: 6) and DARPin11 (SEQ ID NO: 11) could still bind to HER2. […] All analytes (500 nM) were injected in succession for 120s, dissociation was recorded for 180s (25 ul/min). […]

Binder	Kd [pM]
B12	57.5
B2	284
